Results on two substances are retold here after PMC11929599.

Common to all, as to assay: two-hybrid
Test [1] deals with SePdx Y31A fused to T25 (pKT25‐SePdx Y31A) (Synechococcus elongatus PCC 7942).
Test [2] deals with SePdx R96A fused to T25 (pKT25‐SePdx R96A) (Synechococcus elongatus PCC 7942).
Test [3] has as its target SePdx D28A fused to T25 (pKT25‐SePdx D28A) (Synechococcus elongatus PCC 7942).
Test [4] has as its target SePdx Q214A fused to T25 (pKT25‐SePdx Q214A) (Synechococcus elongatus PCC 7942).
The target in test [5] is SePdx R189A fused to T25 (pKT25‐SePdx R189A) (Synechococcus elongatus PCC 7942).
Test [6] addresses SePdx G299A fused to T25 (pKT25‐SePdx G299A) (Synechococcus elongatus PCC 7942).
For test [7], the target named is SePdx Y144A fused to T25 (pKT25‐SePdx Y144A) (Synechococcus elongatus PCC 7942).
Test [8] has as its target SePdx T5A fused to T25 (pKT25‐SePdx T5A) (Synechococcus elongatus PCC 7942).

“CpcA1 fused to T18C (pUT18C) (from UniProt P13530 1-163) (natural protein)”: the decrease of β‐galactosidase activity against WT SePdx in test [1] stood at 46.3%; in test [2], 65.1%; in test [3], 67.6%; in test [4], 40.3%; in test [5], 60.8%.
Turning to “PSI core protein PsaE fused to T18C (pUT18C) (from UniProt Q31NL7 1-75) (natural protein)”, the decrease of β‐galactosidase activity against WT SePdx in test [6] stood at 12.2%; in test [7], 27.2%. The same substance registered an increase of β‐galactosidase activity against WT SePdx in test [8] of 3.19%.
